Positions count from the first letter of the chain named.
T1: GST fusion of VPAC1 variant 4-2 (amino acids 231-457 of SEQ ID NO:15) (human, UniProt P32241 231-457)
T1 construct: not shown: GST carrier and the pGEX vector linker
T1 sequence: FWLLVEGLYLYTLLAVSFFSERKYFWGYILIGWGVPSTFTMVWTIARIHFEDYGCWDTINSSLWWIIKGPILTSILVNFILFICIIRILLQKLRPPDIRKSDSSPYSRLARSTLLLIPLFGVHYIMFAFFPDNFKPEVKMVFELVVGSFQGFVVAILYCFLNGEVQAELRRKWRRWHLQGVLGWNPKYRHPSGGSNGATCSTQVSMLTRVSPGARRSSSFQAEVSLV

T2: GST fusion of VPAC1 variant 3-2 (amino acids 123-457 of SEQ ID NO:15) (human, UniProt P32241 123-457)
T2 construct: not shown: GST carrier and the pGEX vector linker
T2 sequence: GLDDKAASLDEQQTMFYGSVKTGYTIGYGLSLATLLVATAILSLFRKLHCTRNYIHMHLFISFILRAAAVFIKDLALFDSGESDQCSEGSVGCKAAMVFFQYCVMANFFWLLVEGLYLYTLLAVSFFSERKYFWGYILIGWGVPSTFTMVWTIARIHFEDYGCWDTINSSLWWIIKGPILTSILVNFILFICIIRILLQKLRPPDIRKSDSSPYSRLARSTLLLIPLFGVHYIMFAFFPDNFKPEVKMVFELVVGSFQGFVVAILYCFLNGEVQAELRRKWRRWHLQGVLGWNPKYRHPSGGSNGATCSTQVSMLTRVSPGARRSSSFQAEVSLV

T3: VPAC1 receptor of mouse bone marrow-derived CD41/61+ megakaryocytes (mouse, UniProt P97751 31-459)
T3 construct: whole, on cells; Detected by immunoblot of megakaryocytes and addressed on living megakaryocytes in the cAMP assays; also called VPAC1 receptor on the murine megakaryocytes
T3 sequence (looked up): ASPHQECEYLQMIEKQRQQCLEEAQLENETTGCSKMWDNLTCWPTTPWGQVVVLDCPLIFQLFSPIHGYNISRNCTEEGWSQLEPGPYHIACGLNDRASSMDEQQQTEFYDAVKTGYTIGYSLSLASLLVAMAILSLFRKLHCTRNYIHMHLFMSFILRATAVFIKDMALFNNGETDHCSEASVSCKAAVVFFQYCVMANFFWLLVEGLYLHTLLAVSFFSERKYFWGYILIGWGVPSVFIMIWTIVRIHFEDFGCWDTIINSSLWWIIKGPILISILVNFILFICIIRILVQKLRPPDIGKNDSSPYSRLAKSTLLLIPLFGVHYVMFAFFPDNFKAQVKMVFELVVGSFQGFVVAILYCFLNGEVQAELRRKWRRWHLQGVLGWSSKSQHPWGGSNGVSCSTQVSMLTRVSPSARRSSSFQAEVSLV

T4: GST fusion of VPAC1 extracellular loop 3 (human)
T4 construct: also called isolated extracellular loop 3 of the VPAC1 receptor; not shown: glutathione-S-transferase (GST)
T4 chain: PDNFKPEVKMLFE

T5: GST fusion of VPAC1 extracellular loop 2 (human)
T5 construct: also called isolated extracellular loop 2 of the VPAC1 receptor; not shown: glutathione-S-transferase (GST)
T5 chain: IHFEDYGCWDTINSSLWW

B1: murine anti-VPAC1 monoclonal antibody 23A11 (antibody, V domains shown)
VH: EVQLQESGPSLVKPSQTLSLTCSVTGDSITSGYWNWIRKFPGNKLEYMGYIRYSGSTYYSPALKSRFSITRDTSKNQYYLQLNSVTTEDTATYYCSNWAYWGQGTLVTVSA
VL: DIVITQDELSNPVTSGESVSISCRSSKSLLYKDGKTYLNWFLQRPGQSPQLLIYLMSTRASGVSDRFSGSGSGTDFTLEISRVKAEDVGVYYCQQLVEYPLTFGAGTKLELK
notes: Mouse monoclonal antibody from a hybridoma; also called murine 23A11; anti-VPAC1 receptor antibody 23A11
B2: humanized anti-VPAC1 monoclonal antibody 23A11 (antibody, V domains shown)
VH: EVQLQESGPGLVKPSQTLSLTCTVSGDSITSGYWNWIRKHPGKGLEYMGYIRYSGSTYYSPSLKSRFTISRDTSKNQYSLKLSSVTAADTATYYCSNWAYWGQGTLVTVSA
VL: B1 VL with D7S, E8P, N11L, S15P, S18P, E79K, K84E, A105Q, L111I
notes: also called h23A11; rhu23A11

Legend:
[1] = target: T1, GST fusion of VPAC1 variant 4-2 (amino …); experiment: western blot on GST-fused VPAC1 deletion variants
Method: (§1) For the epitope mapping of 23A11, several VPAC1 deletion variants were fused to GST and expressed. Binding of 23A11 to the VPAC1 deletion variants was tested by western blotting.
(§2) VPAC1 variant 4-2 (and, to a lesser extent, variant 3-2) was recognized by 23A11. Since this protein contains the second as well as the third extracellular loop of VPAC1, both loops (extracellular loop 2: SEQ ID NO:1; extracellular loop 3:SEQ ID NO:1) were made as GST fusion proteins and tested in western blotting. The murine antibody 23A11 was binding to each of these loops.

[2] = target: T2, GST fusion of VPAC1 variant 3-2 (amino …); experiment: western blot on GST-fused VPAC1 deletion variants
Method: as §1, §2

[3] = target: T3, VPAC1 receptor of mouse bone …; experiment: immunoblot of mouse bone marrow megakaryocytes
[4] = target: T4, GST fusion of VPAC1 extracellular loop 3; experiment: western blot on GST fusion of extracellular loop 3
[5] = target: T6, GST-VPAC1 fusion protein (full length human VPAC1) (human, UniProt P08515 1-218 = GST); experiment: SPR (BIAcore 1000), GST-VPAC1 immobilised on CM5, antibody injected, 1:1 Langmuir fit; second batch; second of two batches of murine 23A11
T6 construct: also called recombinant VPAC1
Method: (§3) For kinetic binding analysis of GST-VPAC1 with the GST-VPAC1-antibodies, we used a BIAcore surface plasmon resonance system at 25° C. These interactions were performed on a BIAcore 1000. GST-VPAC1 was covalently immobilized on a CM5 sensorchip (carboxylated dextran matrix) after activation with a 1:1 mixture of 1-ethyl-3-(3-dimethylaminopropyl)carbodiimide and N-hydroxysuccinimide. The remaining active sites on the chip were blocked by 1.0 M ethanolamine-HCl at pH 8.5. To perform binding assays with the GST-VPAC1-antibodies, various concentrations (ranging from 250 nm to 5 nm) of murine 23A11 were injected over the immobilized GST-VPAC-1 at a flow rate of 30 μl/min. This was performed in a running buffer consisting of 0.01 M HEPES at pH 7.4, 0.15M NaCl, 3 mM EDTA and 0.005% Surfactant P20 (or Tween 20). The sensorgrams were evaluated using the BIAevaluation 4.1 software. The rate constants kₐ and kd and the dissociation constant KD were determined by using a global fit with a Langmuir 1:1 binding model with baseline drift.

[6] = target: T6, GST-VPAC1 fusion protein (full length …); experiment: SPR (BIAcore 1000), GST-VPAC1 immobilised on CM5, antibody injected, 1:1 Langmuir fit; first batch; first of two batches of murine 23A11
Method: as §3

[7] = target: T5, GST fusion of VPAC1 extracellular loop 2; experiment: western blot on GST fusion of extracellular loop 2
[8] = target: T6, GST-VPAC1 fusion protein (full length …); experiment: SPR (BIAcore 1000), GST-VPAC1 immobilised on CM5, 1:1 Langmuir fit; humanized 23A11, isotype not stated

Binder	binding result [1]	binding result [2]	binding result [3]	binding result [4]	Kd [5] [nM]	Kd [6] [nM]	binding result [7]	Kd [8] [nM]
B1	binds	binds	binds	binds	19.9	28.3	binds	–
B2	–	–	–	–	–	–	–	9.82

Source: patent US20100104530A1 (published 2010)
